B1: murine signal regulatory protein α (SIRPα) on macrophages (receptor, mouse, UniProt P97797 32-513, looked up)
chain: KELKVTQPEKSVSVAAGDSTVLNCTLTSLLPVGPIRWYRGVGPSRLLIYSFAGEYVPRIRNVSDTTKRNNMDFSIRISNVTPADAGIYYCVKFQKGSSEPDTEIQSGGGTEVYVLAKPSPPEVSGPADRGIPDQKVNFTCKSHGFSPRNITLKWFKDGQELHPLETTVNPSGKNVSYNISSTVRVVLNSMDVNSKVICEVAHITLDRSPLRGIANLSNFIRVSPTVKVTQQSPTSMNQVNLTCRAERFYPEDLQLIWLENGNVSRNDTPKNLTKNTDGTYNYTSLFLVNSSAHREDVVFTCQVKHDQQPAITRNHTVLGFAHSSDQGSMQTFPDNNATHNWNVFIGVGVACALLVVLLMAALYLLRIKQKKAKGSTSSTRLHEPEKNAREITQVQSLIQDTNDINDITYADLNLPKEKKPAPRAPEPNNHTEYASIETGKVPRPEDTLTYADLDMVHLSRAQPAPKPEPSFSEYASVQVQRK
notes: whole, on cells; Endogenous protein of WT mouse macrophages; In the co-immunoprecipitations it is tyrosine-phosphorylated in its cytoplasmic ITIMs (SIRPα pY); also called murine SIRPα; surface signal regulatory protein α

Assays:
[1] = target: T1, SHP-1 (SH2-containing tyrosine phosphatase) of mouse macrophages (mouse, UniProt P29351 1-595, limits assumed); test: SIRPα immunoprecipitation from LPS- or IL-17-treated WT PEM lysates, WB for SHP-1
T1 construct: Detected by Western blot in SIRPα immunoprecipitates
Procedure: FIGS. 4A-4E include data related to our experiments on macrophage phagocytic plasticity. FIG. 4A is a panel of illustrative line graphs showing that IL-10 inhibits macrophage phagocytosis toward “self.” PEMs were treated with LPS and activating cytokines along with various concentrations of IL-10 before testing their ability to phagocytose RBCs. FIG. 4B illustrates the phagocytic plasticity of WT red pulp macrophages. […] Treatments of cultured macrophages with LPS and IL-17 re-elicited their phagocytosis toward RBCs. […] Error bars are ±SEM. ***P<0.001 vs. freshly isolated splenic macrophages. FIG. 4D includes microscopic images of RBC phagocytosis by LPS- and IL-17-treated splenic macrophages. […] WT PEMs treated with LPS or IL-17 were further treated with Cd47⁺ RBCs or Cd47-AP (10 min, 37° C.) followed by cell lysis, SIRPα immunoprecipitation, and WB detection of SIRPα phosphorylation (SIRPα^pY) and SHP-1 association. Data presented in each panel represent at least three independent experiments with n≥4, if applicable.

[2] = target: B1; test: note on the reagent used to ligate SIRPα on WT macrophages (FIG. 10)

T1 sequence (P29351 whole entry): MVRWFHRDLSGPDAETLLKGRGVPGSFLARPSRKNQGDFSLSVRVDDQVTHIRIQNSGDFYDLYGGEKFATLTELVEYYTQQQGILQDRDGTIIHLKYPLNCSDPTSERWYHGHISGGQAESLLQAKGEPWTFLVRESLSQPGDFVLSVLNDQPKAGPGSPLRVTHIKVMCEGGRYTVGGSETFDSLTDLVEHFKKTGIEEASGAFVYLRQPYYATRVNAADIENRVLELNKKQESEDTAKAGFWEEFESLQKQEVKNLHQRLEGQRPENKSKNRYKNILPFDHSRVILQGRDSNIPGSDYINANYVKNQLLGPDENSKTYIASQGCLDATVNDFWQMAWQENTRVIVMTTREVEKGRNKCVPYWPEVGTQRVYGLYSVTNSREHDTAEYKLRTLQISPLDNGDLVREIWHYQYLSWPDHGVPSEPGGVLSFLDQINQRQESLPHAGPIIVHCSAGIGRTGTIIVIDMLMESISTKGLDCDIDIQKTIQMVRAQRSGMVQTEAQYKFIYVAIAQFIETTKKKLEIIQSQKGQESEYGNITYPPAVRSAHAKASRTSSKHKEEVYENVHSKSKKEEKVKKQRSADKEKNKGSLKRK

B1
binding result [1]: binds

B2: mCD47-AP, soluble murine CD47 extracellular domain fusion protein (other, mouse, UniProt Q61735 19-140, looked up, not shown: large carriers)
chain: QLLFSNVNSIEFTSCNETVVIPCIVRNVEAQSTEEMFVKWKLNKSYIFIYDGNKNSTTTDQNFTSAKISVSDLINGIASLKMDKRDAMVGNYTCEVTELSREGKTVIELKNRTVSWFSPNEK
notes: extracellular domain
binding result [2]: binds
